Data as given in US20070185028A1, “Compositions and methods for treatment of protein misfolding and protein aggregation diseases” (priority 2004, published 2007).

Tests used:
Type in all cases: biochemical
[1] = target: amyloid beta (1-42) (Homo sapiens, UniProt P05067); test: Cu+++-induced aggregation of amyloid beta (1-42), light scattering 360 nm; details: 100 mM Cu+++
Protocol: In vitro assays were also performed to measure the ability of the human αB crystallin derived peptides identified in Example 1 to inhibit aggregation of Cu^+++-induced amyloid beta (1-42) aggregation. Aggregation assays were performed using routine procedures, in the presence or absence of a synthesized peptide identified in Example 1, in the presence of 100 mM Cu^+++. Aggregation was measured spectrophotometrically as light scattering at a wavelength of 360 nm. Aggregated amyloid-beta was assigned a value of 100% aggregation and used to normalize aggregation in the presence of synthesize peptides.
Aggregation was measured spectrophotometrically as light scattering at a wavelength of 360 nm. Aggregated amyloid-beta was assigned a value of 100% aggregation and used to normalize aggregation in the presence of synthesize peptides. Aggregation was plotted as a bar graph with the standard error for duplicate experiments. The 1 st vertical bar is the scattering measured for aggregated amyloid-beta (100% aggregation) in the presence of 100 mM Cu^+++. The 2nd-4th vertical bars is the scattering from amyloid-beta in the presence of wild type recombinant human αB crystallin. The 5th-13th vertical bars are the scattering of amyloid-beta in the presence of the synthetic peptides, DRFSVNLDVKHFS or LTITSSLSDGV or HGKHEERQDE at selected concentrations. A prefix of 10× represents a 10:1 molar concentration of amyloid-beta to either wild type αB crystallin or its peptides. A prefix of 1× represents a 1:1 molar concentration of amyloid-beta to either wt αB crystallin or its peptides. A prefix of 0.1× represents a 1:10 molar concentration of amyloid-beta to either wt αB crystallin or its peptides.

[2] = target: ADH (Equus caballus, UniProt P00327); test: Chaperone assay, thermal aggregation of ADH at 50° C.; details: 50:1 molar ratio of peptide:ADH, sixty minutes, 340 nm
Protocol: (§1) The chaperone activity of the peptides was measured as their ability to protect against the thermal aggregation of three chaperone target proteins βH crystallin, ADH and CS in chaperone assays performed at 50° C. (FIG. 19). A non-interactive αB crystallin sequence 111HGKHEERQDE120 was used as the negative control in the chaperone assays (FIG. 19). Based on near and far UVCD, the three target proteins unfolded in the order: CS>>>ADH>>βH crystallin when they were heated at 50° C. for sixty minutes (FIGS. 15 and 16). The thermal aggregation of βH crystallin, ADH and CS was measured as light scattering at λ=340 nm in the presence and absence of each peptide. The chaperone activity of each peptide was calculated as percent protection in which the aggregation of each target protein in the absence of any peptides was set at 0% protection (FIG. 19). The interactive peptides […] and 131LTITSSLSDGV141 were effective inhibitors of aggregation of all three chaperone target proteins.
A (top left): thermal aggregation of chaperone target proteins βH crystallin, ADH and CS in the absence of peptides was measured as light scattering at λ=340 nm. Each target protein was heated at 50° C. for sixty minutes in the absence or presence of one of the peptides. […] The chaperone activity of each peptide was calculated as percent protection in which the aggregation of each target protein in the absence of any peptides was set at 0% protection. The ability of the 73DRFSVNLDVKHFS85, 131LTITSSLSDGV141 and 111HGKHEERQDE120 to protect against the thermal aggregation of βH crystallin (B: top right), ADH (C: bottom left) and CS (D: bottom right) were tested in vitro (vertical bars). […] A 10:1 molar ratio of peptide:target protein was sufficient in conferring significant protection against the aggregation of CS by 73DRFSVNLDVKHFS85 and 131LTITSSLSDGV141.

[3] = target: T1, CS (Sus scrofa, UniProt P00889); test: Chaperone assay, thermal aggregation of CS at 50° C.; details: 10:1 molar ratio of peptide:CS, sixty minutes, 340 nm
T1 sequence (P00889 28-464): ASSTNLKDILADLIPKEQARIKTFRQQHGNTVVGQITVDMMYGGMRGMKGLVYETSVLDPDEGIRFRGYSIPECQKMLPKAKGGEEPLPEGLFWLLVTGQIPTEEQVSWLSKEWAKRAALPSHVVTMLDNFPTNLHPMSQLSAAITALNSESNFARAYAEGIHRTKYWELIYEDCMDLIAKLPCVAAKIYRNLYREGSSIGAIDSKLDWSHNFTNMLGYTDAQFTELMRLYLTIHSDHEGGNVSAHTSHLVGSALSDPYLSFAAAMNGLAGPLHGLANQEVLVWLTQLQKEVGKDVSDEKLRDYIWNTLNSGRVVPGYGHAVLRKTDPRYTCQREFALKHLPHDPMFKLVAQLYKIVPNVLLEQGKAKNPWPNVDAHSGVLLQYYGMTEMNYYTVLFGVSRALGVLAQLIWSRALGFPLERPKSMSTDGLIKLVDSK
Protocol: as §1
A (top left): thermal aggregation of chaperone target proteins βH crystallin, ADH and CS in the absence of peptides was measured as light scattering at λ=340 nm. […] The chaperone activity of each peptide was calculated as percent protection in which the aggregation of each target protein in the absence of any peptides was set at 0% protection. […]

[4] = 1:1 and 1:10 molar ratio of amyloid-beta to peptide
[5] = 10:1 molar ratio of amyloid-beta to peptide

ADH, sequence (P00327 whole entry): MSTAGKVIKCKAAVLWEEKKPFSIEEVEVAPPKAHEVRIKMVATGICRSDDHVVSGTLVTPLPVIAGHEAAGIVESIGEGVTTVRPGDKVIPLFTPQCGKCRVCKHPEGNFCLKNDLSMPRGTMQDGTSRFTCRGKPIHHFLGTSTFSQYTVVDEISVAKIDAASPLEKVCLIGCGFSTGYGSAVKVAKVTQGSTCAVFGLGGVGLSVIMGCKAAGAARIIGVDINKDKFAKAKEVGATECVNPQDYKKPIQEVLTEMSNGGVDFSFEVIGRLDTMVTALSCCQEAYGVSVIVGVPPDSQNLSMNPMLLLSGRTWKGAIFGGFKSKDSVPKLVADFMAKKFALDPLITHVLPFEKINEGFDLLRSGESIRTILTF

Sequence	prevention of Cu+++-induced aggregation of amyloid-beta [1, 4]	prevention of Cu+++-induced aggregation of amyloid-beta [1, 5]	percent protection against thermal aggregation of ADH [2]	percent protection against thermal aggregation of CS [3]
DRFSVNLDVKHFS	equally effective	less effective	approximately 30%	
HGKHEERQDE	equally effective	less effective	No protection	partial protection
